This data set in a line: protein stability index of a GFP-peptide fusion (GPS, HEK-293T) (PSI 1-6); higher = more stable. The conditions noted are these: c terminus: a fixed tail appended.

The values that follow come from the supplement of paper PMC10567573.

± gives the standard deviation.
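Further: 24-mer peptide tiles fused after GFP, lentivirally expressed, FACS-sorted into six equal bins by GFP/DsRed ratio, decoded by Illumina sequencing, PSI is the read-weighted mean bin number.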

Regarding DTPVQNKRRRSVTPPEEQQEAEEP [CDC25B], the protein stability index reads like this: (treatment: DMSO) 5.51 ± 0.35; (treatment: MLN4924 1 uM, 8 h) 5.71 ± 0.22. The like results for DTSGFPDLSDNRNEDPLVLLAWRC [FBXO33] were, in that order, 2.67 ± 0.23 and 3 ± 0.46.

Turning to DVEGAESQLDEDEHGLHTKYIHRM [TRAF3IP2], the protein stability index reads like this: (treatment: DMSO) 5.09 ± 0.23; (treatment: MLN4924 1 uM, 8 h) 5.13 ± 0.11. The like results for DVHHGQGTQFTFDQDPSVLYFSIH [HDAC6] were, in that order, 2.04 ± 0.34 and 2.02 ± 0.34.

As to DVQLLHSWNNNDRSLNVFVKEDDK [SPSB1], the protein stability index runs as follows: (treatment: DMSO) 4.88 ± 0.14; (treatment: MLN4924 1 uM, 8 h) 4.97 ± 0.18. For DVRMGGSFRGAFSNSEKAKNIFRI [NET1], the protein stability index reads like this: (treatment: DMSO) 2.32 ± 0.44; (treatment: MLN4924 1 uM, 8 h) 2.44 ± 0.31. For DVTCFLLPHPGLQVATSPDFDGKL [ATL3], in that order: 2.58 ± 0.27 and 2.69 ± 0.35. As for DVVEYLVDRCGASVEAGGSVHFDG [FEM1A], the protein stability index (treatment: DMSO) was 2.48 ± 0.32 and the protein stability index (treatment: MLN4924 1 uM, 8 h) came out at 2.46 ± 0.6. The like results for DVVNYFRTVGFEEQASAFQEQEID [SAMD13] were, in that order, 3.44 ± 0.28 and 3.88 ± 0.44. EAEADKPRRLGRLKYQAPDIDVQL [NOP53] came in with a protein stability index (treatment: DMSO) of 4.63 ± 0.22 and a protein stability index (treatment: MLN4924 1 uM, 8 h) of 4.4 ± 0.2.

EAERKIIEENITSAAPSNDQDGEY [SRPK2]: the protein stability index is 5.66 ± 0.17 (treatment: DMSO) and 5.69 ± 0.26 (treatment: MLN4924 1 uM, 8 h). The like results for EAPQWLESDSCQKCEQPFFWNIKQ [WDFY1] were, in that order, 3.32 ± 0.7 and 3.48 ± 0.38. Consider EDEDDDSADMDESDEDDEEERRRR [FBXO3], for which the protein stability index came to 5.65 ± 0.27 (treatment: DMSO) and 5.69 ± 0.12 (treatment: MLN4924 1 uM, 8 h).

For the sequence EDYGHWLLCLRAVTHREGAPPLPG [PLEKHN1], the protein stability index is, setting by setting: (treatment: DMSO) 2 ± 0.14; (treatment: MLN4924 1 uM, 8 h) 2.16 ± 0.26. EEEEGTMMKAKGDLEMKEEEEISE [ZBED2] showed a protein stability index (treatment: MLN4924 1 uM, 8 h) of 5.53 ± 0.53. Consider EEEVFPLAMNYLDRFLAGVPTPKS [CCND2], for which the protein stability index was 3.35 ± 0.43 (treatment: DMSO) and 3.55 ± 0.25 (treatment: MLN4924 1 uM, 8 h).

Take EEFILLSQGEVEKLIKCDEIQVDS [KLHL12]: the protein stability index runs as follows: (treatment: DMSO) 4.49 ± 0.58; (treatment: MLN4924 1 uM, 8 h) 4.45 ± 0.48. The like results for EEGIVSPSDLDLVMSEGLGMRYAF [CRYL1] were, in that order, 2.27 ± 0.42 and 3.02 ± 0.31.

Take EEIPVVICAAAGRMGATMAAINSI [GLT8D2]: the protein stability index is, setting by setting: (treatment: DMSO) 2.48 ± 0.52; (treatment: MLN4924 1 uM, 8 h) 2.22 ± 0.21. The like results for EELQSWVRGHHPKSGEEAVTVLED [ZNF232] were, in that order, 5.09 ± 0.38 and 5.07 ± 0.39. Regarding EERERIERVRRIHIKRPDDRAHLH [KCTD10], the protein stability index worked out at 4.43 ± 0.18 (treatment: DMSO) and 4.54 ± 0.23 (treatment: MLN4924 1 uM, 8 h). For EETRQKQLLADEKMKQLTEETEVL [TRIM35], in that order: 5.65 ± 0.11 and 5.57 ± 0.22. Consider EEWGHQDPSKRALSRDTVQESYEN [ZNF263], for which the protein stability index was 5.27 ± 0.4 (treatment: DMSO) and 5.3 ± 0.23 (treatment: MLN4924 1 uM, 8 h). For EGNQKGEQATSLAILRVIRLVRVF [KCNA1], in that order: 2.2 ± 0.37 and 2.28 ± 0.37.

For the sequence EGSLQQPKAQSAMSPYLVPDTQAL [SMG5], the protein stability index by setting is: (treatment: DMSO) 4.39 ± 0.27; (treatment: MLN4924 1 uM, 8 h) 4.5 ± 0.18.

EHAIAEAQKNMYFKTRLKCPRSLS [ZNF396]: the protein stability index reads like this: (treatment: DMSO) 3.26 ± 0.23; (treatment: MLN4924 1 uM, 8 h) 3.53 ± 0.3. The like results for EHSHRSHHSLASSLRSHHTHPSYG [DVL3] were, in that order, 3.48 ± 0.25 and 3.56 ± 0.19. As for EIPIHGNGEARQLPEDDGLEQDLQ [ARFIP2], the protein stability index by setting is: (treatment: DMSO) 5.04 ± 0.36; (treatment: MLN4924 1 uM, 8 h) 5.28 ± 0.12. The like results for EKETMQFLNDRLANYLEKVRQLER [KRT36] were, in that order, 2.87 ± 0.38 and 2.85 ± 0.32.

Regarding EKFSSSLHELSSRVEASHLTTSQE [FBF1], the protein stability index came out at 4.99 ± 0.19 (treatment: DMSO) and 5.01 ± 0.11 (treatment: MLN4924 1 uM, 8 h).

EKGTWTELEGDVAEPLAGPACVTV [KLHL14]: the protein stability index (treatment: DMSO) came out at 4.66 ± 0.19 and the protein stability index (treatment: MLN4924 1 uM, 8 h) worked out at 4.6 ± 0.19. For EKRNAGNAVRSAMKSEEQKIKDAR [KMT5A], in that order: 4.72 ± 0.15 and 5.09 ± 0.21. Consider EKYSVATQLFIGGVTGWCTGFIFQ [FUNDC2], for which the protein stability index is, setting by setting: (treatment: DMSO) 2.75 ± 0.75; (treatment: MLN4924 1 uM, 8 h) 3.06 ± 0.35. The like results for ELDELQLCKNCFYLSNARPDNWFC [ZMYND11] were, in that order, 2.01 ± 0.25 and 2.3 ± 0.62. The like results for ELDLSLSDLNEVPVKELAALPKAT [LRRC59] were, in that order, 4.4 ± 0.25 and 4.49 ± 0.29. For ELDPEVEGTKPSATEMIWAVLAAF [GOLPH3L], the protein stability index by setting is: (treatment: DMSO) 2.21 ± 0.36; (treatment: MLN4924 1 uM, 8 h) 2.37 ± 0.28. Regarding ELGEEAMEKFREDEGFIKEEERPL [KCNA1], the protein stability index (treatment: DMSO) turned out to be 5.6 ± 0.31 and the protein stability index (treatment: MLN4924 1 uM, 8 h) was 5.63 ± 0.2. The like results for ELLQQLDLNNCKNNLEPILEGYIS [KRT71] were, in that order, 2.54 ± 0.1 and 2.62 ± 0.36. The like results for ELNFISVFWPQLPNGLEAAYEFAD [MMP1] were, in that order, 2.45 ± 0.47 and 2.15 ± 0.59. In turn, ELRDSSAYHVPNRTLASGRLLSYR [DNAAF3] registered a protein stability index (treatment: DMSO) of 3.04 ± 0.11 and a protein stability index (treatment: MLN4924 1 uM, 8 h) of 3.25 ± 0.096.

In the case of ELRLQSEAFKKHSLDLLSKERELN [CCDC89], the protein stability index runs as follows: (treatment: DMSO) 3.8 ± 0.2; (treatment: MLN4924 1 uM, 8 h) 3.69 ± 0.42. For ELRNVQDVVEDYKKRYEEEINKRT [KRT71], in that order: 3.62 ± 0.35 and 4.45 ± 0.24. For EMAFNTRCKEENTIILQQLLPLRT [NLN], in that order: 2.54 ± 0.55 and 2.5 ± 0.32. As for EMEKSFREEEKTFWKKYRTFWKED [CCDC70], the protein stability index by setting is: (treatment: DMSO) 3.77 ± 0.31; (treatment: MLN4924 1 uM, 8 h) 3.67 ± 0.35. For EMRTKEQILELLVLEQFLTILPQE [ZNF263], in that order: 2.44 ± 0.35 and 2.26 ± 0.43. ENAGGSPSPEPAGRRAALYVHWPY [RSAD1] yielded a protein stability index (treatment: DMSO) of 3 ± 0.4 and a protein stability index (treatment: MLN4924 1 uM, 8 h) of 3.23 ± 0.34. The like results for ENHQPVSLSDLEIQASAGVISKKA [ZNF75A] were, in that order, 4.94 ± 0.19 and 4.98 ± 0.39. EPCGPGKSKLTYMCRVDLRGHMPE [DLC1]: the protein stability index is 2.45 ± 0.29 (treatment: DMSO) and 2.11 ± 0.52 (treatment: MLN4924 1 uM, 8 h). For EPGPAAYGLKPLTPNSKYVKLNVG [KCTD13], in that order: 3.66 ± 0.11 and 3.62 ± 0.31. The like results for EPPPKSGPSLVPGKTPTVRAALIC [CD207] were, in that order, 3 ± 0.15 and 3 ± 0.23.

For the sequence EQAKKESEDQKRLKQAKELDRERA [CHCHD3], the protein stability index (treatment: DMSO) is 5.57 ± 0.24 and the protein stability index (treatment: MLN4924 1 uM, 8 h) is 5.48 ± 0.17. In the case of EQAQAYAERLGVTFFEVSPLCNFN [RAB40A], the protein stability index came out at 2.25 ± 0.26 (treatment: DMSO) and 2.48 ± 0.3 (treatment: MLN4924 1 uM, 8 h). For EQIAERKRKMVSWEASSLGLVTAA [KMT2E], in that order: 2.65 ± 0.45 and 3.33 ± 0.76.

Turning to EQLFFVRLVGKTPIETLIRDMLLS [NR2F2], the protein stability index (treatment: DMSO) is 2.56 ± 0.47 and the protein stability index (treatment: MLN4924 1 uM, 8 h) came to 2.42 ± 0.61.

Regarding ERPMYGRDSAYQSITHYRPVSASR [EMD], the protein stability index reads like this: (treatment: DMSO) 3.81 ± 0.26; (treatment: MLN4924 1 uM, 8 h) 3.76 ± 0.28. For ERRRELVRSQTLPRTSEAQARKAL [SMTNL2], in that order: 5.27 ± 0.39 and 5.27 ± 0.29. The like results for ERTWPPPAMSPYWRTWMTITQSWQ [C22orf15] were, in that order, 2.31 ± 0.58 and 1.94 ± 0.32. For ESAQATFQAHRDKYEKLRGDVAIK [ARFIP2], in that order: 4.37 ± 0.16 and 4.62 ± 0.18. For the sequence ESIVPIPSSNEEIRLVDDAFGKIC [INTS4], the protein stability index runs as follows: (treatment: DMSO) 4.05 ± 0.35; (treatment: MLN4924 1 uM, 8 h) 4.29 ± 0.32. As to ESKKHQVETAFERLQQELEQQRCL [TRIM15], the protein stability index was 4.61 ± 0.31 (treatment: DMSO) and 4.53 ± 0.12 (treatment: MLN4924 1 uM, 8 h). Turning to ESLSSQLSNLQKESRACLERIQEL [LMNB1], the protein stability index by setting is: (treatment: DMSO) 4.28 ± 0.14; (treatment: MLN4924 1 uM, 8 h) 4.38 ± 0.13. As for ESQKKKQQDDSDEYDDDDSAASTS [ZNF207], the protein stability index was 5.7 ± 0.1 (treatment: DMSO) and 5.53 ± 0.18 (treatment: MLN4924 1 uM, 8 h). The like results for ESTNPEKAHETLHQSLSLASSPKG [CDC25A] were, in that order, 5.37 ± 0.37 and 5.45 ± 0.27.

In the case of ETTGIQIWSEVFTVEKPGGKKVAV [ATL3], the protein stability index by setting is: (treatment: DMSO) 2.79 ± 0.24; (treatment: MLN4924 1 uM, 8 h) 3.01 ± 0.2. EVLVKSNNLTDRIVVIPGKVEEVS [CARM1]: the protein stability index is, setting by setting: (treatment: DMSO) 3.66 ± 0.19; (treatment: MLN4924 1 uM, 8 h) 3.8 ± 0.43. The like results for EVVPALEPTETLLSEKEINAREES [BCL2L13] were, in that order, 5.6 ± 0.13 and 5.58 ± 0.22. The like results for EWENNRESLIVFMEQVHRGIKGLV [CPXM2] were, in that order, 2.27 ± 0.56 and 2.07 ± 0.37. For EWIRFDQSNVLCSIFGICMVFSGL [PTGFR], the protein stability index is, setting by setting: (treatment: DMSO) 2.87 ± 0.59; (treatment: MLN4924 1 uM, 8 h) 3.15 ± 0.071. The like results for FAAEAGHIDIVKELIKWRAAIVVN [FEM1B] were, in that order, 2.3 ± 0.28 and 2.02 ± 0.55. For FCREEMGEVLKSSTFSSGPSDKMK [SPOPL], in that order: 3.53 ± 0.41 and 3.69 ± 0.23. With FDLERENACATKEQKNHTFPRLNR [PLD5], the protein stability index is, setting by setting: (treatment: DMSO) 4.55 ± 0.37; (treatment: MLN4924 1 uM, 8 h) 4.75 ± 0.28. For FEEQENYFLLCDVLPEDRILREEL [ZNF277], in that order: 3.26 ± 0.16 and 3.5 ± 0.67. The like results for FEEYALVNQDILENKESWDKILAL [PRIM1] were, in that order, 3.3 ± 0.31 and 3.6 ± 0.45.
